Consider ten proteins from paper PMC3302947 (Biochemistry, 2012).

The chains are these.
B1: MBP-Vif(101–176) (domain or fragment)
chain: not shown
B2: MBP-Vif(101–160) (domain or fragment)
chain: ELADQLIHLYYFDCFSDSAIRKALLGHIVSPRCEYQAGHNKVGSLQYLALAALITPKKIK
B3: MBP-Vif(101–192) (domain or fragment)
chain: ELADQLIHLYYFDCFSDSAIRKALLGHIVSPRCEYQAGHNKVGSLQYLALAALITPKKIKPPLPSVTKLTEDRWNKPQKTKGHRGSHTMNGH
B4: MBP-Vif(101–172) (domain or fragment)
chain: ELADQLIHLYYFDCFSDSAIRKALLGHIVSPRCEYQAGHNKVGSLQYLALAALITPKKIKPPLPSVTKLTED
B5: MBP-Vif(101–165) (domain or fragment)
chain: ELADQLIHLYYFDCFSDSAIRKALLGHIVSPRCEYQAGHNKVGSLQYLALAALITPKKIKPPLPS
B6: MBP-Vif(101–176)_(AALA) (domain or fragment)
chain: ELADQLIHLYYFDCFSDSAIRKALLGHIVSPRCEYQAGHNKVGSLQYLALAALITPKKIKAALASVTKLTEDRWNK
B7: MBP-Vif(101–176)_(PPPP) (domain or fragment)
chain: not shown
B8: MBP-Vif(101–176) V166S (domain or fragment)
chain: not shown
B9: MBP-Vif(101–176)_(PPGP) (domain or fragment)
chain: not shown

A value given as a limit tells only on which side of the number the result lay.

The first series concerns the molecule itself. In words: AUC.
Usually stoichiometry N stands for a count of units in the complex or per binding partner. As to ITPKKIKPPLPSVTKLTEDRWNK (domain or fragment) [MBP-Vif(154–176)], the “stoichiometry N” value was 2.

A further series concerns the molecule itself. Put plainly: AUC. The source holds these as a separate data set.
Regarding B1, the “percent monomer at 10 μM” value was less than 30%.

In the case of B2, the “percent monomer at 10 μM” value is less than 30%.

Consider B3, for which the “percent monomer at 10 μM” value is less than 30%.

As to B4, the “percent monomer at 10 μM” value was less than 30%.

Consider B5, for which the “percent monomer at 10 μM” value is less than 30%.

A further series deals with the molecule itself. Put plainly: AUC. This is another data set of the same source.
On to B6, for which the binding result was “binds”.

As to B7, the binding result is “binds”.

For B8, the binding result was “binds”.

For B9, the binding result is given as “binds”.
